Measured values taken from patent US20080044360A1 (COLLAGEN MEDICAL, published 2008).
Bridge positions count the residues as written; N and C are the ends. Square brackets hold non-standard residues; d marks the D form. Primed or numbered codes have the meaning given here. Side chains are listed from the residue outwards. Ends that are not written are not given here. * marks the point of attachment. Tyr(3-Cl) = N[C@@H](Cc1ccc(O)c(Cl)c1)C(=O)O; Phe(3-OMe) = COc1cccc(C[C@H](N)C(=O)O)c1; Phe(4-NH2) = Nc1ccc(C[C@H](N)C(=O)O)cc1; Phe(4-F) = N[C@@H](Cc1ccc(F)cc1)C(=O)O; Dmt = Cc1cc(O)cc(C)c1C[C@H](N)C(=O)O; hTyr = N[C@@H](CCc1ccc(O)cc1)C(=O)O; NMeA = CN[C@@H](C)C(=O)O; Gd^T″ = GdDTPA-thiourea; Cbz = O=C(OCc1ccccc1)*

target: T1, human collagen type I, acid soluble, extracted from placenta (Sigma C7774) (human, UniProt P02452 162-1218; P08123 80-1119); test: dried collagen assay
T1 construct: tissue extract, gelled and dried in wells; also called dried human collagen; h-Collagen
T1 sequence (P02452 162-1218 limits assumed, chain 1 of 2): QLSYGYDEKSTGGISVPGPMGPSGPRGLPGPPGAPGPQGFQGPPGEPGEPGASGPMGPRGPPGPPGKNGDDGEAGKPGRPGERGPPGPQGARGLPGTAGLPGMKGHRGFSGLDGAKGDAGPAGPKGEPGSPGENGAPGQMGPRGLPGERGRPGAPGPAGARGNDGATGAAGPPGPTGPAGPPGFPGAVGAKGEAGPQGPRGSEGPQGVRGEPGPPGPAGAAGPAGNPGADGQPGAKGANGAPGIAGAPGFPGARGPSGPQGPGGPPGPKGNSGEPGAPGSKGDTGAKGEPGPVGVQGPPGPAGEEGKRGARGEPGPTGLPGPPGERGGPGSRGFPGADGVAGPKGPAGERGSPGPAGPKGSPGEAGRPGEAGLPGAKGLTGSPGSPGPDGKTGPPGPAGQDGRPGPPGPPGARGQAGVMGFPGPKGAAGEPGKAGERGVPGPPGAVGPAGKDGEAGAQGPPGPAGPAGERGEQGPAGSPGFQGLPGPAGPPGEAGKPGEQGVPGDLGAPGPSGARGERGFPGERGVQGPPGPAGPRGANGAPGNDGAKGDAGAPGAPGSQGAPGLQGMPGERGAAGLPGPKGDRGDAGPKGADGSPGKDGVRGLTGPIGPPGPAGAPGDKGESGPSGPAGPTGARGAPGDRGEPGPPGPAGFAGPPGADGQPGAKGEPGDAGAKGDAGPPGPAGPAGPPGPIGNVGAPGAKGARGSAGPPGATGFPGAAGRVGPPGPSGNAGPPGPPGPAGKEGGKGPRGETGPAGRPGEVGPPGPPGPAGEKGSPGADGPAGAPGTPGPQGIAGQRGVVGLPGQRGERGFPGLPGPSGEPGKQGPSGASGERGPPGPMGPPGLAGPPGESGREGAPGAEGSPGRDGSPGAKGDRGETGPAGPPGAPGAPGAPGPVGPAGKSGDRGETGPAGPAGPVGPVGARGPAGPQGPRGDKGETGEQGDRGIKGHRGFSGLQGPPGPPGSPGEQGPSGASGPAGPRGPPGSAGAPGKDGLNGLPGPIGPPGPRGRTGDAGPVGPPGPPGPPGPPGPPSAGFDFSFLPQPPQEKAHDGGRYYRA
T1 sequence (P08123 80-1119 limits assumed, chain 2 of 2): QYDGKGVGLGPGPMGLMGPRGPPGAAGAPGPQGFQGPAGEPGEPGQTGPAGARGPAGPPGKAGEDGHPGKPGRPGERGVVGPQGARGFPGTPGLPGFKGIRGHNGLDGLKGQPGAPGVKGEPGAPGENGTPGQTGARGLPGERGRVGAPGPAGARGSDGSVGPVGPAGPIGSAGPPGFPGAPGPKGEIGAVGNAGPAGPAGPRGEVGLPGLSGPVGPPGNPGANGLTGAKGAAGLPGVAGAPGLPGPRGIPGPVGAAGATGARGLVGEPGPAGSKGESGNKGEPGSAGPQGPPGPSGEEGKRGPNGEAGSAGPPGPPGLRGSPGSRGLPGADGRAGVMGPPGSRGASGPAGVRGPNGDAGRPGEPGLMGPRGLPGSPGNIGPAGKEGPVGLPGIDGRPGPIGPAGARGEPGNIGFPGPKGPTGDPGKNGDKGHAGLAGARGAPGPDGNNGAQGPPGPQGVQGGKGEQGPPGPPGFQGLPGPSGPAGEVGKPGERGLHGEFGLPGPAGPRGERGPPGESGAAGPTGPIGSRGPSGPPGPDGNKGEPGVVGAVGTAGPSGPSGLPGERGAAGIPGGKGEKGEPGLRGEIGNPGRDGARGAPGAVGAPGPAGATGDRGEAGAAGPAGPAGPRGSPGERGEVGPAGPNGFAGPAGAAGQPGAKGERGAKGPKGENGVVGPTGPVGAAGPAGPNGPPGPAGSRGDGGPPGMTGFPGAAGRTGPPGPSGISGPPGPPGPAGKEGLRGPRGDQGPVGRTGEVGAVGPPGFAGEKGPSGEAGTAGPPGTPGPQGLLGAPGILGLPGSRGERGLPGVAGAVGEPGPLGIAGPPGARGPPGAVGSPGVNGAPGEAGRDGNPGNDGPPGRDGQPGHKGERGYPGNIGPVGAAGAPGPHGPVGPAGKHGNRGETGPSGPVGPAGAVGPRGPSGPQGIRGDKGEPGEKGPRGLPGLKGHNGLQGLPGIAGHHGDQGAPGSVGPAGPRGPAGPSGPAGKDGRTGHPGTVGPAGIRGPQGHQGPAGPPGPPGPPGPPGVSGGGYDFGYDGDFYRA

Row | Binder | % bound [%]
1 | {Gd^T″}-GQWHCATRFPHHYCLYG (disulfide 5-14 (inferred)) [Compound ID 877] | 58
2 | {Gd^T″}-GQWHCTTRF[NMeA]HHYCLYG (disulfide 5-14 (inferred)) [Compound ID 938] | 16
3 | {Gd^T″}-GQWHCTTDFPHHYCL[Tyr(3-Cl)]G (disulfide 5-14 (inferred)) [Compound ID 892] | 63
4 | {Gd^T″}-GAWHCTTLFPHH[dY]CLYG (disulfide 5-14 (inferred); not fully specified (C-terminus)) [Compound ID 908] | 20
5 | {Gd^T″}-GQWHCTTRFPSHYCLYG (disulfide 5-14 (inferred)) [Compound ID 880] | 30
6 | {Gd^T″}-GK([Gly-Gd^T″])WHCTTYFPHHYCLYY (disulfide 5-14 (inferred)) [Compound ID 949] | 72
7 | {Gd^T″}-GSWHCTTLFPHH[dY]CLYG (disulfide 5-14 (inferred); not fully specified (C-terminus)) [Compound ID 911] | 15
8 | {Gd^T″}-GAWHCTTYFPHH[dY]CLYG (disulfide 5-14 (inferred); not fully specified (C-terminus)) [Compound ID 915] | 15
9 | {Gd^T″}-GQWHCT[dY]RFPHHYCLYG (disulfide 5-14 (inferred); not fully specified (C-terminus)) [Compound ID 899] | 20
10 | {Gd^T″}-GQWHCTTRFPHH[hTyr]CLYG (disulfide 5-14 (inferred)) [Compound ID 933] | 36
11 | {Gd^T″}-GQWHCTTRFPHHYCLYG (disulfide 5-14 (inferred); not fully specified (C-terminus)) [Compound ID 954] | 31
12 | {Gd^T″}-GQWHCTTRFPHHYCFYG (disulfide 5-14 (inferred)) [Compound ID 931] | 70
13 | {Gd^T″}-GQWHCTT[Phe(4-F)]FPHHYCLYG (disulfide 5-14 (inferred)) [Compound ID 929] | 27
14 | {Gd^T″}-GQWHCTTDFPHHYCLFG (disulfide 5-14 (inferred)) [Compound ID 890] | 38
15 | {Gd^T″}-GK([Gly-Gd^T″])WHCTTYFPHH[Tyr(3-Cl)]CLYG (disulfide 5-14 (inferred)) [Compound ID 952] | 52
16 | {Gd^T″}-GQWHCTTRFPHH[Phe(3-OMe)]CLYG (disulfide 5-14 (inferred)) [Compound ID 935] | 59
17 | {Gd^T″}-GDWHCTTLFPHH[dY]CLYG (disulfide 5-14 (inferred); not fully specified (C-terminus)) [Compound ID 910] | 13
18 | {Gd^T″}-GQWHCTTRFPHH[hTyr(Me)]CLYG (disulfide 5-14 (inferred)) [Compound ID 934] | 21
19 | {Gd^T″}-GK([Gly-Gd^T″])WHCTTYFPHH[Dmt]CLYG (disulfide 5-14 (inferred)) [Compound ID 953] | 50
20 | {Gd^T″}-GK([Gly-Gd^T″])WHCYTYFPHHYCVYY (disulfide 5-14 (inferred)) [Compound ID 945] | 83
21 | {Gd^T″}-GQWHCTTLFPNHYCLYG (disulfide 5-14 (inferred)) [Compound ID 923] | 28

Row | Binder | % bound [%]
22 | {Gd^T″}-GQWHCTTRFPK(Gd^T″)HYCLYG (disulfide 5-14 (inferred)) [Compound ID 958] | 45
23 | Cbz-GQWHCTTK(Gd^T″)FPHHYCLYG (disulfide 5-14 (inferred)) [Compound ID 926] | 81
24 | {Gd^T″}-GQWHCTTLFPHNYCLYG (disulfide 5-14 (inferred)) [Compound ID 924] | 24
25 | {Gd^T″}-GQWNCTTLFPHHYCLYG (disulfide 5-14 (inferred)) [Compound ID 922] | 68
26 | {Gd^T″}-GQWHCTTLFPHHYCVYG (disulfide 5-14 (inferred)) [Compound ID 928] | 73
27 | {Gd^T″}-GQWHCT[dT]RFPHHYCLYG (disulfide 5-14 (inferred)) [Compound ID 879] | 33
28 | {Gd^T″}-GQWHCYTLFPHHYCLYG (disulfide 5-14 (inferred)) [Compound ID 959] | 58
29 | {Gd^T″}-GK([Gly-Gd^T″])WHCTTYFPHHYCVYG (disulfide 5-14 (inferred)) [Compound ID 942] | 78
30 | {Gd^T″}-GQWHCK(Gd^T″)TRFPHHYCLYG (disulfide 5-14 (inferred)) [Compound ID 957] | 42
31 | {Gd^T″}-GQWHCTYLFPHHYCLYG (disulfide 5-14 (inferred)) [Compound ID 921] | 68
32 | {Gd^T″}-GQWHCTTLFPHHYCIYG (disulfide 5-14 (inferred)) [Compound ID 927] | 64
33 | {Gd^T″}-GK([Gly-Gd^T″])WHCYTYFPHHYCLYG (disulfide 5-14 (inferred)) [Compound ID 943] | 55
34 | {Gd^T″}-GK([Gly-Gd^T″])WHCYTYFPHHYCVYG (disulfide 5-14 (inferred)) [Compound ID 944] | 91
35 | GQWHCYTLFPHHYCLYG (disulfide 5-14 (inferred); not fully specified (N-terminus)) [Compound ID 920] | 67
36 | {Gd^T″}-GK([Gly-Gd^T″])WHCTTYFPYHYCLYG (disulfide 5-14 (inferred)) [Compound ID 946] | 71
37 | {Gd^T″}-GK([Gly-Gd^T″])WHCTTYFPHYYCLYG (disulfide 5-14 (inferred)) [Compound ID 947] | 64
38 | {Gd^T″}-GK([Gly-Gd^T″])WHCTTLFPHHYCLYG (disulfide 5-14 (inferred)) [Compound ID 930] | 31
39 | {Gd^T″}-GQWHCTTIFPHH[dY]CLYG (disulfide 5-14 (inferred); not fully specified (C-terminus)) [Compound ID 917] | 12
40 | {Gd^T″}-GQWHCTTD[Phe(4-NH2)]PHHYCLYG (disulfide 5-14 (inferred)) [Compound ID 884] | 24
41 | {Gd^T″}-GK([Gly-Gd^T″])WHCTTYFPHWYCLYG (disulfide 5-14 (inferred)) [Compound ID 948] | 25
42 | {Gd^T″}-GQWK(Gd^T″)CTTRFPHHYCLYG (disulfide 5-14 (inferred)) [Compound ID 956] | 39

target: T2, rat collagen, acid soluble, type I, rat tail (Upstate 08-115) (rat, UniProt P02454 152-1207; P02466 86-1125); test: dried collagen assay
T2 construct: tissue extract, gelled and dried in wells; also called dried rat collagen
T2 sequence (P02454 152-1207, chain 1 of 2): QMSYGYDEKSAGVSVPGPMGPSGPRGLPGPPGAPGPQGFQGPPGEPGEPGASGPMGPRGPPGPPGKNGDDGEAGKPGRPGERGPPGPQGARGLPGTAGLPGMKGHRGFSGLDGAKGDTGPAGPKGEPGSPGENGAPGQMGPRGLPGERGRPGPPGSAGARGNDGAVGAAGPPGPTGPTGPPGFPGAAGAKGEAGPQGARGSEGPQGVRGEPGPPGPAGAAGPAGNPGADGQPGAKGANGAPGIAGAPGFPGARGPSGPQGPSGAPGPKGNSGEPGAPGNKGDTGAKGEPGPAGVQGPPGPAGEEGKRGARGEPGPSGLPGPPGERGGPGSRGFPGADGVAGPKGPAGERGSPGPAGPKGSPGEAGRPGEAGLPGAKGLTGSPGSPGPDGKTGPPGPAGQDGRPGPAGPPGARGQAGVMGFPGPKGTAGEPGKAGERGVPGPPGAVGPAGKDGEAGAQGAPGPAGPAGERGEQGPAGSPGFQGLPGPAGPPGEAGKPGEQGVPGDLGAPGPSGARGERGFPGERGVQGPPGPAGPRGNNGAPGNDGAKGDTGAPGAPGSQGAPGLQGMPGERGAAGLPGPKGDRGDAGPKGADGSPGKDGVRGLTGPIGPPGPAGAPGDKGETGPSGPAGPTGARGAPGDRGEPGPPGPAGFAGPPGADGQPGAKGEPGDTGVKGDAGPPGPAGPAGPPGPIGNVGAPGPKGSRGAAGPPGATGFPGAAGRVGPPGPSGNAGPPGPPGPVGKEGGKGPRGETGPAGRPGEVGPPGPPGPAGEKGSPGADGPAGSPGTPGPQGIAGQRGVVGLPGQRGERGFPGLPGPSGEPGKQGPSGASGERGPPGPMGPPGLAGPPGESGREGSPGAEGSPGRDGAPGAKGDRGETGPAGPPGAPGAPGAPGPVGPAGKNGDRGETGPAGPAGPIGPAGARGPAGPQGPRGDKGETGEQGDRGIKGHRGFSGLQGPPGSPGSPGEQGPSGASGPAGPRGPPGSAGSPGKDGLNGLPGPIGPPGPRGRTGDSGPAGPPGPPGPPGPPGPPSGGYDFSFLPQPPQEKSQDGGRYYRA
T2 sequence (P02466 86-1125, chain 2 of 2): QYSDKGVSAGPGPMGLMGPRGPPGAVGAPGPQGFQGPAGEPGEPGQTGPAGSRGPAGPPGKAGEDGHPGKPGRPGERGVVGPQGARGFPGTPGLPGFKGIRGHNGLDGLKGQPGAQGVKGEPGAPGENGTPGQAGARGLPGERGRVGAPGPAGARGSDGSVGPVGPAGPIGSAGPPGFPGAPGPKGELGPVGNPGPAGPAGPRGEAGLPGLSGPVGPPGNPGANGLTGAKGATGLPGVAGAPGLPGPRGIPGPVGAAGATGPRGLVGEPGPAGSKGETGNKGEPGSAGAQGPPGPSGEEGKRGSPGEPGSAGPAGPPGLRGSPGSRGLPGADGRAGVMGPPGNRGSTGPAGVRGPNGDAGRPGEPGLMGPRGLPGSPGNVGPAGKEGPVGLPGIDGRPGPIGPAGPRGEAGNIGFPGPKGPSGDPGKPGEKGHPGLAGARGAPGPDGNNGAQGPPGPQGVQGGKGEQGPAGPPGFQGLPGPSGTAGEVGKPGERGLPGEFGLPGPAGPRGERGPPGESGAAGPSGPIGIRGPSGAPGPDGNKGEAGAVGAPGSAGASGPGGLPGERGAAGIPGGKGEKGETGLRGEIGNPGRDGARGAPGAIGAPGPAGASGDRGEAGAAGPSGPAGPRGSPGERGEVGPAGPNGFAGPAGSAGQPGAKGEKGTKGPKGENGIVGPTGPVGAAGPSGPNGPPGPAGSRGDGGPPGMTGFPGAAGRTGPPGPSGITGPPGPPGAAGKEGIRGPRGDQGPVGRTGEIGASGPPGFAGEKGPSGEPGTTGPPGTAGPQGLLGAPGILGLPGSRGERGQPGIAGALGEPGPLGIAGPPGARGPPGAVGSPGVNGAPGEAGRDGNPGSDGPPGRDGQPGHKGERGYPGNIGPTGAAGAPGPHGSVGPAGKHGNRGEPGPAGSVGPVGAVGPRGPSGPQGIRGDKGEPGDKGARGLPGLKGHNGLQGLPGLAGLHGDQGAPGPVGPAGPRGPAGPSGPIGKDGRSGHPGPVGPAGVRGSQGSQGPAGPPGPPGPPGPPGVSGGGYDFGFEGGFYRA

Row | Binder | % bound [%]
43 | {Gd^T″}-GQWHCATRFPHHYCLYG (disulfide 5-14 (inferred)) [Compound ID 877] | 41
44 | {Gd^T″}-GQWHCTTRF[NMeA]HHYCLYG (disulfide 5-14 (inferred)) [Compound ID 938] | 13
45 | {Gd^T″}-GQWHCTTDFPHHYCL[Tyr(3-Cl)]G (disulfide 5-14 (inferred)) [Compound ID 892] | 56
46 | {Gd^T″}-GAWHCTTLFPHH[dY]CLYG (disulfide 5-14 (inferred); not fully specified (C-terminus)) [Compound ID 908] | 0
47 | {Gd^T″}-GQWHCTTRFPSHYCLYG (disulfide 5-14 (inferred)) [Compound ID 880] | 0
48 | {Gd^T″}-GK([Gly-Gd^T″])WHCTTYFPHHYCLYY (disulfide 5-14 (inferred)) [Compound ID 949] | 79
49 | {Gd^T″}-GSWHCTTLFPHH[dY]CLYG (disulfide 5-14 (inferred); not fully specified (C-terminus)) [Compound ID 911] | 0
50 | {Gd^T″}-GAWHCTTYFPHH[dY]CLYG (disulfide 5-14 (inferred); not fully specified (C-terminus)) [Compound ID 915] | 0
51 | {Gd^T″}-GQWHCT[dY]RFPHHYCLYG (disulfide 5-14 (inferred); not fully specified (C-terminus)) [Compound ID 899] | 14
52 | {Gd^T″}-GQWHCTTRFPHH[hTyr]CLYG (disulfide 5-14 (inferred)) [Compound ID 933] | 24
53 | {Gd^T″}-GQWHCTTRFPHHYCLYG (disulfide 5-14 (inferred); not fully specified (C-terminus)) [Compound ID 954] | 22
54 | {Gd^T″}-GQWHCTTRFPHHYCFYG (disulfide 5-14 (inferred)) [Compound ID 931] | 83
55 | {Gd^T″}-GQWHCTT[Phe(4-F)]FPHHYCLYG (disulfide 5-14 (inferred)) [Compound ID 929] | 34
56 | {Gd^T″}-GQWHCTTDFPHHYCLFG (disulfide 5-14 (inferred)) [Compound ID 890] | 15
57 | {Gd^T″}-GK([Gly-Gd^T″])WHCTTYFPHH[Tyr(3-Cl)]CLYG (disulfide 5-14 (inferred)) [Compound ID 952] | 72
58 | {Gd^T″}-GQWHCTTRFPHH[Phe(3-OMe)]CLYG (disulfide 5-14 (inferred)) [Compound ID 935] | 39
59 | {Gd^T″}-GDWHCTTLFPHH[dY]CLYG (disulfide 5-14 (inferred); not fully specified (C-terminus)) [Compound ID 910] | 0
60 | {Gd^T″}-GQWHCTTRFPHH[hTyr(Me)]CLYG (disulfide 5-14 (inferred)) [Compound ID 934] | 14
61 | {Gd^T″}-GK([Gly-Gd^T″])WHCTTYFPHH[Dmt]CLYG (disulfide 5-14 (inferred)) [Compound ID 953] | 50
62 | {Gd^T″}-GK([Gly-Gd^T″])WHCYTYFPHHYCVYY (disulfide 5-14 (inferred)) [Compound ID 945] | 82
63 | {Gd^T″}-GQWHCTTLFPNHYCLYG (disulfide 5-14 (inferred)) [Compound ID 923] | 10

Row | Binder | % bound [%]
64 | {Gd^T″}-GQWHCTTRFPK(Gd^T″)HYCLYG (disulfide 5-14 (inferred)) [Compound ID 958] | 33
65 | Cbz-GQWHCTTK(Gd^T″)FPHHYCLYG (disulfide 5-14 (inferred)) [Compound ID 926] | 87
66 | {Gd^T″}-GQWHCTTLFPHNYCLYG (disulfide 5-14 (inferred)) [Compound ID 924] | 1
67 | {Gd^T″}-GQWNCTTLFPHHYCLYG (disulfide 5-14 (inferred)) [Compound ID 922] | 58
68 | {Gd^T″}-GQWHCTTLFPHHYCVYG (disulfide 5-14 (inferred)) [Compound ID 928] | 80
69 | {Gd^T″}-GQWHCT[dT]RFPHHYCLYG (disulfide 5-14 (inferred)) [Compound ID 879] | 0
70 | {Gd^T″}-GQWHCYTLFPHHYCLYG (disulfide 5-14 (inferred)) [Compound ID 959] | 68
71 | {Gd^T″}-GK([Gly-Gd^T″])WHCTTYFPHHYCVYG (disulfide 5-14 (inferred)) [Compound ID 942] | 67
72 | {Gd^T″}-GQWHCK(Gd^T″)TRFPHHYCLYG (disulfide 5-14 (inferred)) [Compound ID 957] | 39
73 | {Gd^T″}-GQWHCTYLFPHHYCLYG (disulfide 5-14 (inferred)) [Compound ID 921] | 35
74 | {Gd^T″}-GQWHCTTLFPHHYCIYG (disulfide 5-14 (inferred)) [Compound ID 927] | 63
75 | {Gd^T″}-GK([Gly-Gd^T″])WHCYTYFPHHYCLYG (disulfide 5-14 (inferred)) [Compound ID 943] | 72
76 | {Gd^T″}-GK([Gly-Gd^T″])WHCYTYFPHHYCVYG (disulfide 5-14 (inferred)) [Compound ID 944] | 84
77 | GQWHCYTLFPHHYCLYG (disulfide 5-14 (inferred); not fully specified (N-terminus)) [Compound ID 920] | 91
78 | {Gd^T″}-GK([Gly-Gd^T″])WHCTTYFPYHYCLYG (disulfide 5-14 (inferred)) [Compound ID 946] | 68
79 | {Gd^T″}-GK([Gly-Gd^T″])WHCTTYFPHYYCLYG (disulfide 5-14 (inferred)) [Compound ID 947] | 57
80 | {Gd^T″}-GK([Gly-Gd^T″])WHCTTLFPHHYCLYG (disulfide 5-14 (inferred)) [Compound ID 930] | 42
81 | {Gd^T″}-GQWHCTTIFPHH[dY]CLYG (disulfide 5-14 (inferred); not fully specified (C-terminus)) [Compound ID 917] | 0
82 | {Gd^T″}-GQWHCTTD[Phe(4-NH2)]PHHYCLYG (disulfide 5-14 (inferred)) [Compound ID 884] | 15
83 | {Gd^T″}-GK([Gly-Gd^T″])WHCTTYFPHWYCLYG (disulfide 5-14 (inferred)) [Compound ID 948] | 17
84 | {Gd^T″}-GQWK(Gd^T″)CTTRFPHHYCLYG (disulfide 5-14 (inferred)) [Compound ID 956] | 15
